Laboratory results as given in paper PMC4102529, “FRET Based Quantification and Screening Technology Platform for the Interactions of Leukocyte Function-Associated Antigen-1 (LFA-1) with InterCellular Adhesion Molecule-1 (ICAM-1)” (PLoS ONE, 2014).
Blank lines part the entries; values can stand above or below the substance they belong to.

How the values were obtained:
[1] = molecular target: human recombinant ICAM-1 (D1-D2-Fc), Alexa Fluor 555 conjugate (human) (UniProt P05362); test: FRET or BRET; steady-state, in solution competition screening, 96-well plate; Alexa Fluor 488-LFA-1 (100 nM) mixed with peptide (0.02, 0.2, 2, 20 µM), then incubated with Alexa Fluor 555-D1-D2-Fc (100 nM) for 30 min in the dark; PBS pH 7.4, 1 mM EGTA, 2 mM Mg2+; inhibition efficiency from the FRET efficiency
Sequence of human recombinant ICAM-1 (D1-D2-Fc), Alexa Fluor 555 conjugate (human) (P05362 28-532): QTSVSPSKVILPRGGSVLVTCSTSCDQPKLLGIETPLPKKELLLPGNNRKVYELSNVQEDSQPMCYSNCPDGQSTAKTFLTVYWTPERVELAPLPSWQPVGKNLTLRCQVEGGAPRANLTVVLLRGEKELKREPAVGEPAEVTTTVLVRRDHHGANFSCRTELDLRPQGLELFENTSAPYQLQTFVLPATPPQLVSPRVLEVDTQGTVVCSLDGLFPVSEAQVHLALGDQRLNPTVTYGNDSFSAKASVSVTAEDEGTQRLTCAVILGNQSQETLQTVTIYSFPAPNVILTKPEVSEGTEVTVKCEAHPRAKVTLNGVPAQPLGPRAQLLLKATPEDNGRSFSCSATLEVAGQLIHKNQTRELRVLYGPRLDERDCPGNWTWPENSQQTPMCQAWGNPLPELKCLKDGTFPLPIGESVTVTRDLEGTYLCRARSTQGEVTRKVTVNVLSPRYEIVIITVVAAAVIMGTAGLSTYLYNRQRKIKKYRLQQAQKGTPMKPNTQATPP

[2] = molecular target: recombinant human integrin LFA-1 (αLβ2), Alexa Fluor 488 conjugate (human) (UniProt P20701); test: FRET or BRET; steady-state, in solution, 96-well plate; Alexa Fluor 488-LFA-1 (donor) fixed at 100 nM, Alexa Fluor 555-D1-D2-Fc (acceptor) varied from 0 to 1.6 µM; PBS pH 7.4, 1 mM EGTA, 2 mM Mg2+; fit assuming one-to-one interaction
Sequence of recombinant human integrin LFA-1 (αLβ2), Alexa Fluor 488 conjugate (human) (P20701 26-1090, chain 1 of 2): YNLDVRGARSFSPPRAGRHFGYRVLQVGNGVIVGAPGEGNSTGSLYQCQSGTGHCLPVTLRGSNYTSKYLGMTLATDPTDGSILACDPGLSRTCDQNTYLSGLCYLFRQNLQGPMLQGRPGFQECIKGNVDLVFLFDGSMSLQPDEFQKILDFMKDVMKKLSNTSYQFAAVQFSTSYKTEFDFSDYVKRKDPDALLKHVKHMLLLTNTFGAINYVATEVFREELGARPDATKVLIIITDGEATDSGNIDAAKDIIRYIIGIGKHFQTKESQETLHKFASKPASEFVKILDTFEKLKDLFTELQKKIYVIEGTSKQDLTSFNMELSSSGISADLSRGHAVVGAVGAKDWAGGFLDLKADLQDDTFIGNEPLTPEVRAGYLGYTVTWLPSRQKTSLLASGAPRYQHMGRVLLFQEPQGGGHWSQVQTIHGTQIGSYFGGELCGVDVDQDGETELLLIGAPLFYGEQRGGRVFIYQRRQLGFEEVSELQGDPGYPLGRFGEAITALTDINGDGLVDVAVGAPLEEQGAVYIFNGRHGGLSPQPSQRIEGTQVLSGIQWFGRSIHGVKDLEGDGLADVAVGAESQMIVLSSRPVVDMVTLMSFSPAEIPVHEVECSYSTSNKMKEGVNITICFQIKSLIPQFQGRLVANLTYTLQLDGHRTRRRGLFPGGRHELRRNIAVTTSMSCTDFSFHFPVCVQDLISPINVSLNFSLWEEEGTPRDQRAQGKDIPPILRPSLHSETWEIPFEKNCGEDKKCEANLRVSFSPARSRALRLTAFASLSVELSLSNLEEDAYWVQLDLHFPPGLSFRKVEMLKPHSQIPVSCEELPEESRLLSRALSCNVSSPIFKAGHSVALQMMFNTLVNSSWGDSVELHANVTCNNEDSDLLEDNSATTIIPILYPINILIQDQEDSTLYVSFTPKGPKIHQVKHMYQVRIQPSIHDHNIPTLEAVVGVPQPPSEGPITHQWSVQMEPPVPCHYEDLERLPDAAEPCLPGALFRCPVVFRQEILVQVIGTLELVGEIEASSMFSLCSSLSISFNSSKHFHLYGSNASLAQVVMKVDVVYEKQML
Sequence of recombinant human integrin LFA-1 (αLβ2), Alexa Fluor 488 conjugate (human) (P05107 23-700, chain 2 of 2, further chain): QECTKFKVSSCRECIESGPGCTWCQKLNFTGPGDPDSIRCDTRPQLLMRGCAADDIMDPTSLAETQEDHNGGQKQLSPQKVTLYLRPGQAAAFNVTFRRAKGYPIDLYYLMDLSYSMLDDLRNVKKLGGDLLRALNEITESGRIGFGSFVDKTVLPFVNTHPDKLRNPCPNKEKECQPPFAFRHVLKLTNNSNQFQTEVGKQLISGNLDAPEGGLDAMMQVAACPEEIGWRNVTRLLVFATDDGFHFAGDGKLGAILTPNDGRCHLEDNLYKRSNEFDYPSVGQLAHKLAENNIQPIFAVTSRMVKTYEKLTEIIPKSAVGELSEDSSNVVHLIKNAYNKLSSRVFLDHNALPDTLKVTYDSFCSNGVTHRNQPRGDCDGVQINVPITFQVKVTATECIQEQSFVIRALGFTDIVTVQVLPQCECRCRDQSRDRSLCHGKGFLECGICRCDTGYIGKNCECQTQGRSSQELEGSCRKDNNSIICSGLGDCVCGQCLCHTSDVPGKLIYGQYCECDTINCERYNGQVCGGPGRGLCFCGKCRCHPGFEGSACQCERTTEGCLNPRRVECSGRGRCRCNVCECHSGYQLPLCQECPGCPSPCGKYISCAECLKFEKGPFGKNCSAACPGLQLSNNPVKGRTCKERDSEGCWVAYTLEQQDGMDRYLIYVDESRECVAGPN

[3] = molecular target: human recombinant ICAM-1 (D1-D2-Fc), Alexa Fluor 555 conjugate (human) (UniProt P05362); test: FRET or BRET; steady-state, in solution; emission spectra at 470 nm excitation of mixtures with Alexa Fluor 555-D1-D2-Fc constant at 100 nM and Alexa Fluor 488-LFA-1 at 25-300 nM (A/D 8.40-0.70); incubated 30 minutes at room temperature; FRET efficiency by Eq. (3)

- inhibition efficiency of the LFA-1/D1-D2-Fc interaction at 0.02 µM peptide [1]: 20.9%
- inhibition efficiency of the LFA-1/D1-D2-Fc interaction at 0.2 µM peptide [1]: 37.1%
- inhibition efficiency of the LFA-1/D1-D2-Fc interaction at 2 µM peptide [1]: 46.9%
- inhibition efficiency of the LFA-1/D1-D2-Fc interaction at 20 µM peptide [1]: 62%
Substance: CD11a(441–465) peptide

- Kd [2]: 17.9 nM
Substance: human recombinant ICAM-1 (D1-D2-Fc), Alexa Fluor 555 conjugate (from UniProt P05362 28-532) (Fc fusion)

- FRET efficiency (%) at A/D ratio 2.12 (100 nM LFA-1) [3]: 53.5%
Substance: recombinant human integrin LFA-1 (αLβ2), Alexa Fluor 488 conjugate (from UniProt P20701 26-1090; P05107 23-700) (complex)
